# Source: publication PMC5031973
# Biological target: recombinant human β-actin (wild type) (human) (UniProt P60709)
# Experiment: ITC; VP-ITC, 25 °C, G-buffer (5 mM Tris-HCl pH 7.8, 0.1 mM CaCl2, 0.2 mM DTT, 0.2 mM ATP, 0.01% NaN3); 29 injections of 10 μl Tβ4 (100 μM) into actin (10 μM) in the cell
substance,measurement,value
thymosin β4 (from UniProt P62328 1-44) (peptide),Kd,500 nM
